# Results published in patent US7030231 (University of California, dated 2006).
# T1: inactive Ser805Ala His-tagged MT-SP1 protease domain
# T1 chain: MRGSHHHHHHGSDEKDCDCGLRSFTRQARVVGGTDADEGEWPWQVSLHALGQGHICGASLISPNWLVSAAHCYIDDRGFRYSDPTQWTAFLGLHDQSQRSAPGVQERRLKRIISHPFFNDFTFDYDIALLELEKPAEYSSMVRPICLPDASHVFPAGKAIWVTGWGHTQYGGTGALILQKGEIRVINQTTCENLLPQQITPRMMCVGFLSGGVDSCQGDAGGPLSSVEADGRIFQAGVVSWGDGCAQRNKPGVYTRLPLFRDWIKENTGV
# T2: His-tagged MT-SP1 protease domain (refolded, autoactivated, purified on p-aminobenzamidine resin) (human, UniProt Q9Y5Y6 615-855)
# T2 construct: The split 596-614 / 615-855 follows from the stated construct limits and the stated cleavage site; also called His-MT-SP1 protease domain; MT-SP1 His-tagged protease domain
# T2 sequence 1: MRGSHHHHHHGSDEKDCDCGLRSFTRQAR
# T2 sequence 2: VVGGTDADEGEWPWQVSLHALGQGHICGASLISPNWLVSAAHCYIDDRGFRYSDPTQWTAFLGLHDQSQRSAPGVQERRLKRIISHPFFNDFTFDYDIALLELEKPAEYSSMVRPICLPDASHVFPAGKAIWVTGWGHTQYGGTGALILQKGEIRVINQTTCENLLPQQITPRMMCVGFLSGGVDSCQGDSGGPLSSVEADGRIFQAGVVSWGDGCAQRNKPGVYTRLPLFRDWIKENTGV
# B1: His-tagged MT-SP1 protease domain (refolded, autoactivated, purified on p-aminobenzamidine resin) (protein)
# chain 1: MRGSHHHHHHGSDEKDCDCGLRSFTRQAR
# chain 2: T2 sequence 2
# B2: ecotin M84R/M85R (other, E. coli (purified from E. coli), UniProt P23827 21-162, looked up)
# chain: AESVQPLEKIAPYPQAEKGMKRQVIQLTPQEDESTLKVELLIGQTLEVDCNLHRLGGKLENKTLEGWGYDYYVFDKVSSPVSTRRACPDGKKEKKFVTAYLGDAGMLRYNSKLPIVVYTPDNVDVKYRVWKAEEKIDNAVVR
# notes: They probably count on mature ecotin, not on the precursor with its signal peptide
# How the values were obtained:
# [1] = molecular target: T1, inactive Ser805Ala His-tagged MT-SP1 …
# [2] = molecular target: T2, His-tagged MT-SP1 protease domain …; assay: apparent Ki; inhibition of Spectrozyme tPA hydrolysis by 63 pM enzyme, fit to the tight-binding reversible inhibitor equation
# Procedure: Ecotin and ecotin M84R/M85R were purified from *E. coli* as described in copending application Ser. Nos. 09/290,513 and 09/289,830, both filed on Apr. 12, 1999. Various concentrations of ecotin or ecotin M84R/M85R were incubated with the His-tagged serine protease domain in a total volume of 990 μL of buffer containing 50 mM NaCl, 50 mM Tris-HCl (pH 8.8), 0.01% Tween 20. 10 μL of Spectrozyme tPA was added, yielding a solution containing 100 μM substrate. The final enzyme concentration was 63 pM, and the ecotin and ecotin M84R/M85R concentration ranged from 0.1 nM to 50 nM. The data were fit to the equation derived for kinetics of reversible tight-binding inhibitors (Morrison (1969) *Biochim. Biophys. Acta* 185: 269–286, Williams and Morrison (1979) *Methods. Enzymol.* 63: 437–467), and the values for apparent K_i were determined.
# The enzyme concentration was determined using an active site titration with MUGB. The catalytic activity of the protease domain was monitored using pNA substrates. Purified protease domain was tested for hydrolytic activity against tetrapeptide substrates of the form Suc-AAPX-pNA, which contained various amino acids at the P1 position (P1-Ala, Asp, Glu, Phe, Leu, Met, Lys, or Arg). The only substrates with detectable activity were those with P1-Lys or P1-Arg. The serine protease domain with the Ser^805Ala mutation had no detectable activity. […]
Binder,cleavage monitored by SDS-PAGE [1],Ki [2]
B1,This treatment results in the formation of a cleavage product that corresponds to the size of the active protease,–
B2,–,9.8 pM
